Data reported in PMC10275983 (2023).
No end group written: not given here.

Tests used:
Test in all cases: SPR
[1] = molecular target: S1-NTD (ACROBiosystems S1D-C52H6) (SARS-CoV-2 (Wuhan-Hu-1 strain))
[2] = molecular target: S1 (Novus Biologicals NBP2-90985) (SARS-CoV-2, UniProt P0DTC2 14-685)
[3] = molecular target: S2 (ACROBiosystems S2N-C52E8) (SARS-CoV-2 (Wuhan-Hu-1 strain), UniProt P0DTC2 14-1273)
[4] = molecular target: S1-RBD (ACROBiosystems SPD-C82E9) (SARS-CoV-2 (Wuhan-Hu-1 strain), UniProt P0DTC2 319-541)

## ACDHYHCPWLALGGSCA (not fully specified (bridges); also: bicyclic peptide, scaffold not given here) [E6 Bicycle (exemplar of epitope group 6)]
[1]
  Kd: 3.9 µM

## ACIPLDWTCMIACA (not fully specified (bridges); also: bicyclic peptide, scaffold not named) [E4 Bicycle (exemplar of epitope group 4)]
[2]
  Kd: 2.9 µM
[1]
  Kd: 0.44 µM

## ACSSKFCDAWWNFNRCA (not fully specified (bridges); also: Bicycle) [E12 Bicycle (exemplar of epitope group 12)]
[3]
  Kd: 0.81 µM

## ACEYVGPMCYRLYCA (not fully specified (bridges); also: Bicycle) [E1 Bicycle (exemplar of epitope group 1)]
[2]
  Kd: 5.1 µM
[4]
  Kd: 3.6 µM

## ACPYVAGRGTCLLCA (not fully specified (bridges); also: Bicycle) [E2 Bicycle (canonical exemplar of epitope group 2)]
[2]
  Kd: 0.83 µM
[4]
  Kd: 0.65 µM

## ACANPDNPVCRFYCA (not fully specified (bridges); also: bicyclic peptide, scaffold not named) [E5 Bicycle (canonical exemplar of epitope group 5)]
[2]
  Kd: 0.024 µM

## ACEDNDWVYCSTCA (not fully specified (bridges); also: Bicycle) [E3 Bicycle (exemplar of epitope group 3)]
[2]
  Kd: 2.5 µM
[4]
  Kd: 2.3 µM

## ACFPEPWLGLCTPCA (not fully specified (bridges); also: Bicycle) [E11 Bicycle (exemplar of epitope group 11)]
[3]
  Kd: 0.53 µM

## ACMNPFFYDCETVCA (not fully specified (bridges); also: bicyclic peptide, scaffold not named) [E9 Bicycle (exemplar of epitope group 9)]
[2]
  Kd: 3.8 µM
[4]
  Kd: 4.1 µM

## ACINPYCEHHIYLEHCA (not fully specified (bridges); also: bicyclic peptide, scaffold not given here) [E7 Bicycle (exemplar of epitope group 7)]
[1]
  Kd: 4 µM
